Measured values reported in patent publication US8927207B2, “miRNAs as therapeutic targets in cancer” (Research Foundation of State University of New York, priority 2008, dated 2015).

How the values were obtained:
DHFR mRNA [1] = test: real time qRT-PCR of DHFR mRNA after transfection; type: cell-based, human; settings: HCT-116 (wt-p53), 24 h after transfection, GAPDH normalized
Procedure: The analysis was performed as follows. Total RNA, including miRNA, was isolated from cell lines by using TRIzol reagent (Invitrogen) according to the manufacturer's instructions at 24 h after transfection. cDNA was synthesized with the High Capacity cDNA synthesis kit (Applied Biosystems) using 2 μg of total RNA as the template and random primers. Real-time qRT-PCR analysis was done on the experimental mRNAs. The PCR primers and probes for DHFR, and the internal control gene GAPDH were purchased from Applied Biosystems. qRT-PCR was done on an ABI 7500HT instrument under the following conditions: 50° C., 2 min of reverse transcription; 95° C., 10 min; 95° C., 15 sec; 60° C., 1 min. The reaction was done for up to 40 cycles (n=3). GAPDH was used as an internal standard for normalization.

DHFR mRNA [2] = test: real time qRT-PCR of DHFR mRNA; type: cell-based; settings: U-2 OS cells
Procedure: Expression levels of TS or DHFR mRNA were analyzed using real time qRT-PCR analysis (FIG. 15).

p53 = test: western immunoblot of p53 in HCT-116 (wt-p53) and U-2 OS cells; type: cell-based; settings: both HCT-116 (wt-p53) and U-2 OS cells, 48 h after transfection
Excerpt: miR-215 increases the expression of cell cycle control genes p53 and p21. p53 and p21, a downstream target of the p53 pathway of growth control, are reported to block cells at G2 checkpoint mainly through inhibiting activity of Cdc2, the cyclin-dependent kinase that normally drives cells into mitosis, which is the ultimate target of pathways that mediate rapid arrest in G2 in response to DNA damage. To further analyze the mechanism of cell proliferation inhibition by miR-215, we transfected miR-215 precursor into HCT-116 (wt-p53) and U-2 OS cells, and evaluated the levels of cell cycle control genes p53 and p21 by western immunoblot analysis.

HCT-116 (wt-p53) cells [3] = test: cell cycle analysis by flow cytometry; type: cell-based, human; parameters: cell cycle profile G1/S / cell cycle profile G2/S: unit not given here
Procedure: To determine whether the miR-192's impact on cellular proliferation was related to cell cycle control, the effect on cell cycle control was analyzed by flow cytometry using HCT-116 (wt-p53) (FIG. 5A) and HCT-116 (null-p53) (FIG. 5B) cells transfected with non-specific control miR (left line graph) or miR-192 (right line graph). This experiment was performed as follows. The HCT-116 (wt-p53) and HCT-116 (null-p53) cells lines as described above (see Example 3) were transfected with miR-192 precursor and the non-specific control miRNA described as above (see Examples 1 and 2). At 36 hours after transfection, the cells were harvested and resuspended at 0.5-1×10^5 cells/ml in modified Krishan buffer containing 0.1% sodium citrate and 0.3% NP-40 and kept at 4° C. Before being analyzed by flow cytometry, cells were treated with 0.02 mg/ml RNase H and stained with 0.05 mg/ml propidium iodide (Sigma).
miR-215 induces G2-arrest in HCT-116 (wt-p53) and U-2 OS cells. To investigate the mechanism by which miR-215 suppressed cell proliferation in HCT-116 (wt-p53) and U-2 OS cells, the impact of miR-215 on cell cycle control was analyzed by flow cytometry at 36 h after transfection. HCT-116 (wt-p53), HCT-116 (null-p53), U-2 OS and MG63 cells were transfected with miR-215 precursor and the non-specific control miRNA described as above. At 36 h after transfection, cells were harvested and resuspended at 0.5-1 10^5 cells/ml in modified Krishan buffer containing 0.1% sodium citrate and 0.3% NP-40 and kept at 4° C. Before analysis by flow cytometry, cells were treated with 0.02 mg/ml RNase H and stained with 0.05 mg/ml propidium iodide (Sigma).

E2F3 = test: Western immunoblot of E2F3, HCT-116 (wt-p53); type: cell-based, human
Procedure: The expression of miR-192 on the expression of E2F3 and Rb in HCT-116 (wt-p53) cells was also analyzed. In these experiments, HVT-116 (wt-p53) cells, as described above (see Example 3) were transfected with non-specific miR (FIG. 7, lane 2), DHFR siRNA (FIG. 7, lane 3) or miR-192 (FIG. 7, lane 4) according to the procedure described above (see Examples 1 and 2). One HCT-116 (wt-p53) sample was not transfected, and used as a negative control (FIG. 7, lane 1). Western immunoblot analysis was performed according to the procedure described above (see Example 5), except that rabbit anti-E2F-3 polyclonal antibody (1:1000, C-18) (Santa Cruz Biotechnology) was used.

TS = test: western immunoblot of TS protein after transfection; type: cell-based; settings: 48 hours after transfection
Procedure: At 48 h after transfection with miR-215, miR-192 precursors or non-specific control miRNA, the cells were scraped and lysed in RIPA buffer (Sigma). Equal amounts of proteins were resolved by SDS-PAGE on 12% gels by the method of Laemmli, and transferred to polyvinylidene fluoride membranes (BIO-RAD Laboratories). The membranes were then blocked by 5% nonfat milk in TBS-T (Tris-buffered saline and 0.5% Tween-20) at room temperature for 1 h. The primary antibodies used for the analysis included mouse anti-TS mAb (1:400, Millipore), mouse anti-DHFR mAb (1:250, BD Bioscience), mouse anti-p53 mAb (1:1000, DO-1), mouse anti-p21 mAb (1:1000, F-5), and mouse anti-α-tubulin mAb (1:1000, TU-02) purchased from Santa Cruz Biotechnology. Horseradish peroxidase—conjugated antibodies against mouse (1:1000, Santa Cruz Biotechnology) were used as the secondary antibodies. Protein bands were visualized with a chemiluminescence detection system using the Super Signal substrate (BIO-RAD).
At 48 hours after transfection, proteins were extracted from miR-215-transfected cells and from control cells and changes in TS or DHFR protein levels were determined by western immunoblot analysis (FIG. 14).

DHFR protein = test: Western immunoblot of DHFR protein after transfection; type: cell-based, human; settings: HCT-116 (wt-p53)
Procedure: In this experiment, human colon cancer cell lines, HCT-116 (wt-p53), cells were transfected with miR-192 or miR-24. The cells were maintained in McCoy's 5A medium (Life Technologies). The media was supplemented with 10% dialyzed fetal bovine serum (Hyclone Laboratories). The cell line were grown at 37° C. in a humidified incubator with 5% CO2.
The HCT-116 (wt-p53) cells tranfected as follows. The cells (2×10^5) were plated in 6-well plates and transfected with 100 nmol/L of either miR-192 or miR-24 precursors or nonspecific control miR (Ambion) after 24 h with Oligofectamine (Invitrogen) according to the manufacturer's instructions.
At 48 hours after transfection with miR-192 or miR-24 precursors or nonspecific control miRNA, the cells were scraped and lysed in radioimmunoprecipitation assay buffer (Sigma). […] Horseradish peroxidase-conjugated antibodies against mouse or rabbit (1:1,000; Santa Cruz Biotechnology) were used as the secondary antibodies.

HCT-116 (wt-p53) cells [4] = test: WST-1 cell proliferation with MTX treatment after transfection; type: cell-based, human; settings: 72 hours
Procedure: HCT-116 (wt-p53) cells were plated in 96-well plates at 1×10^3 cells/well in triplicate. They were transfected with miR-192 precursor (FIG. 3, lane 4), non-specific control miRNA (FIG. 3, lane 2), or siRNA against DHFR (FIG. 3, lane 3) in 100 μl of medium. […] Ten microliters of WST-1 (Roche Applied Science) was added to each well. After 2 hours of incubation, absorbance was measured at 450 and 630 nm respectively (n=3).

B1: miR-192: microRNA miR-192 (SEQ ID NO:1), transfected into cells as miR-192 precursor (Ambion) (nucleic acid)
chain: GCCGAGACCGAGUGCACAGGGCUCUGACCUAUGAAUUGACAGCCAGUGCUCUCGUCUCCCCUCUGGCUGCCAAUUCCAUAGGUCACAGGUAUGUUCGCCUCAAUGCCAGC
modifications: delivered as precursor, further chemistry not given here
DHFR mRNA expression (DHFR mRNA [1]): no reduction | DHFR mRNA expression (DHFR mRNA [2]): no reduction | p53 protein level (p53): significant increase | cell cycle profile G1 (HCT-116 (wt-p53) cells [3]; 36 hours after transfection): 40.84% | cell cycle profile G1/S (HCT-116 (wt-p53) cells [3]; 36 hours after transfection): 2.83 | cell cycle profile G2 (HCT-116 (wt-p53) cells [3]; 36 hours after transfection): 44.71% | cell cycle profile G2/S (HCT-116 (wt-p53) cells [3]; 36 hours after transfection): 3.09 | cell cycle profile S (HCT-116 (wt-p53) cells [3]; 36 hours after transfection): 14.45% | G1 arrest (HCT-116 (wt-p53) cells [3]; vs non-specific miR): > 2 fold | G2 arrest (HCT-116 (wt-p53) cells [3]; vs non-specific miR): > 3 fold | expression of E2F3 (E2F3): decreased expression | TS protein levels (TS): clearly decreases | expression of DHFR protein (DHFR protein; 100 nmol/L precursor, 48 hours after transfection): clearly decreased | potency for decreasing DHFR expression (DHFR protein; compared with positive control miR-24): comparable to miR-24 | effect in combination with MTX (HCT-116 (wt-p53) cells [4]; MTX 25 nM): synergistic effect | cell proliferation reduced (HCT-116 (wt-p53) cells [4]; transfected cells in combination with MTX 25 nM): ~70%
